The record followed here is the nanobody polyreactivity screen of Harvey et al. (2022).

This series can be described thus: yeast display, Sf9 membrane polyspecificity reagent, FACS + sequencing; frameworks hold sequencing errors. The method, boiled down: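 Nanobodies from a synthetic yeast display library (Saccharomyces cerevisiae BJ5465), induced 36–48 hours with galactose, were stained 1 hour at 4 °C with 10% biotinylated, detergent-solubilized Sf9 membrane reagent, enriched on streptavidin microbeads, then FACS-sorted. Anti-HA (expression) and streptavidin (reagent binding) fluorescence set low and high (top ~1%) gates. Polyreactivity labels come from the gate of origin. Genes were colony-PCR amplified, MiSeq 2 × 250 sequenced and filtered by CDR length.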
As to “QVQLVESGGGLVQAGGSLRLSCAASGSTFYYYAMGWSRQAPGKERELVATITSGGSTNYADSVKGRFTISRDNAKNTVYLQMNSLKPEDTAVYYCNADDGYSVWGYDYWGQGTQVTVSS”, the “polyreactivity (PSR sort gate)” value is on record as “low polyreactivity”.

In the case of “QVQLVESGGGLVQAGGSLRLSCAASGSTFYYYAMGWYRPAPGKERELVATIDSGTSTYYADSVKGRFTISRDNAKNTVYFQMNSLKPEDTAVYYCAAKTWSWSYGYNYWGQGTLVTVSS”, the “polyreactivity (PSR sort gate)” value is listed as “low polyreactivity”.

Turning to “QVQLVESGGGLVQAGGSLRLSCAASGSTFYYYAMGWYRQAPGKEREFVAAITWSGGSTYYADSVKGRFTISRDNAKNTVYLQMNSLKPEDTAVYYCAKDQRYYYYGGGDYWGQGTQVTVSS”, the “polyreactivity (PSR sort gate)” value is reported as “low polyreactivity”.

Regarding “QVQLVESGGGLVQAGGSLRLSCAASGSTFYYYAMGWYRQAPGKERELVAAINDSGDRTYYADSVKGRFTISRDNAKNNVYLQMNSLKPEDTAVYYCAADLVSLDPEYDYWGQGTQVTVSS”, the “polyreactivity (PSR sort gate)” value is on record as “low polyreactivity”.

Take “QVQLVESGGGLVQAGGSLRLSCAASGSTFYYYAMGWYRQAPGKERELVAAINSGGRTNYADSVKGRFTISRDNAKNTVYLQMNSLKPEDTAVYSCARDGYHRDYDYWGQGTQVTVSS”: the “polyreactivity (PSR sort gate)” value is “low polyreactivity”.

For the sequence “QVQLVESGGGLVQAGGSLRLSCAASGSTFYYYAMGWYRQAPGKERELVAAITISGGSTYADSVKGRFTISRDNAKNTVYLQMNSLKPEDTALYYCAAYSGVGYLWFDYWGQGTQVTVSS”, the “polyreactivity (PSR sort gate)” value is “low polyreactivity”.

Take “QVQLVESGGGLVQAGGSLRLSCAASGSTFYYYAMGWYRQAPGKERELVAAITNVTSTYYADSVKGRFTISRDNAKNTVYLQMNSLKPEDTAGYYCAAPDPSTEVTYDYWGQGTQVTVSS”: the “polyreactivity (PSR sort gate)” value is “low polyreactivity”.

For “QVQLVESGGGLVQAGGSLRLSCAASGSTFYYYAMGWYRQAPGKERELVASITTGGGSTYYADSVKGRFTISRDNAKNTVYLQMNSLKPEDTAVYYCAAALAYYYWWYDYWGQGTQVTVSS”, the “polyreactivity (PSR sort gate)” value is “low polyreactivity”.

In the case of “QVQLVESGGGLVQAGGSLRLSCAASGSTFYYYAMGWYRQAPGKERELVASITTGGGSTYYADSVKGRFTISRDYAKNTVYLQMNSLKPEDTAVYYCAAALAYYYWWYDYWGQGTQVTVSS”, the “polyreactivity (PSR sort gate)” value is reported as “low polyreactivity”.

“QVQLVESGGGLVQAGGSLRLSCAASGSTFYYYAMGWYRQAPGTAREWVAAISYSGGRTYYADSVKGRFTISRDHAKNTDDIQMNSLKPEYTAVYYCATGQPILALRYAYGYWGQATQVTVSS”: the “polyreactivity (PSR sort gate)” value was “low polyreactivity”.

As for “QVQLVESGGGLVQAGGSLRLSCAASGSTFYYYARGWYRQAPGKERELVAAIDRDDRTNYADSVKGRFTISRDNAKNTVYLQMNSLKAEDTAVYYCAAVEIYEYDYWGQGTQVTVSS”, the “polyreactivity (PSR sort gate)” value is on record as “low polyreactivity”.

For the sequence “QVQLVESGGGLVQAGGSLRLSCAASGSTFYYYTMGWYRQAPGKERELVAAISGSGSRTYYADSVKGRFTISRDNAKNTVYLQMNSLNPEDTGVYYCAAKRSYPYGSGYWGQGTQVTVSS”, the “polyreactivity (PSR sort gate)” value is given as “high polyreactivity”.

As to “QVQLVESGGGLVQAGGSLRLSCAASGSTFYYYTMGWYRQAPGKERELVARITRSGGTTYYADSVKGRFTISRDNAKNTVYLQMNSLKPEDTAVYYCAARRYGYTSITWYDYWGQGTLVTVSS”, the “polyreactivity (PSR sort gate)” value is recorded as “high polyreactivity”.

“QVQLVESGGGLVQAGGSLRLSCAASGSTIDPYGMGWYRQAPGKERELVAAITSSGRTNYADSVKGRFTISRDNAKNTVYLQMNSLKPEDTAVYYCNVQTYVELRLDYWGQGTQVTVSS”: the “polyreactivity (PSR sort gate)” value is on record as “low polyreactivity”.

Take “QVQLVESGGGLVQAGGSLRLSCAASGSTIDYYAMGLYRQAPGKERELVAGISASGGSTYYADSEKGRFTISRDNAKNTVYLQMNSLKPEDTAVYYCASYYKPPGYDYWGQGTQVTVSS”: the “polyreactivity (PSR sort gate)” value was “low polyreactivity”.

As to “QVQLVESGGGLVQAGGSLRLSCAASGSTIERYAMGWYRPAPGKERELVAAIRWSGGSTYYADSVKGRFTISRDNAKNTVYLQMNSLKPEDTAVYYCAASRSNADWFDSLGQGTQVTVSS”, the “polyreactivity (PSR sort gate)” value is “high polyreactivity”.

Turning to “QVQLVESGGGLVQAGGSLRLSCAASGSTIFENVMGWYRQAPGKEREFVAAINTSGGSTYYADSVKGRFTISRDNAKNTVYLQMNSLKPEDTAVYYCARDSYWEMDYWGQGTQVTVSS”, the “polyreactivity (PSR sort gate)” value is given as “low polyreactivity”.

Turning to “QVQLVESGGGLVQAGGSLRLSCAASGSTIGDNAMGWYRQAPGKERELVASISWSGASTYYADSVKGRFTISRDNAKNTVYLQMNSLKPEDTAVYYCAVYYSYYSHLYHLLFSYWGQGTQVTVSS”, the “polyreactivity (PSR sort gate)” value is recorded as “low polyreactivity”.

As to “QVQLVESGGGLVQAGGSLRLSCAASGSTIGPYAMGWYRQAPGKERELVAAITESGDSTYYADSVKGRFTISRDTAKNTVYLQMNSLKPEDTAVYYCAADVYGDKMDYWGQGTQVTVSS”, the “polyreactivity (PSR sort gate)” value is “low polyreactivity”.

Take “QVQLVESGGGLVQAGGSLRLSCAASGSTIGYYAMGWYRQAPGTERELVAAITRSGGSTSYADSVKGRFTISRDNAKNTVYLQMNSLKPEDTAVYYCAARFYRPYYARQGYNYWGQGTQVTVSS”: the “polyreactivity (PSR sort gate)” value is reported as “high polyreactivity”.

In the case of “QVQLVESGGGLVQAGGSLRLSCAASGSTIIRNAMGWSRQAPGKERELVAAISTSGGRTHYADSVKGRFTISRDNAKNTVYLQMNSLKPEDTAVYYCATRGKGHYYYWGQGTQVTVSS”, the “polyreactivity (PSR sort gate)” value is recorded as “high polyreactivity”.

On to “QVQLVESGGGLVQAGGSLRLSCAASGSTIKGYDMGWYRQAPGKERELVAAIDSGGSTYYADSVKGRFTISRDNAKNTVYLQMNSLKPEDTAVFYCAAERVSLYWVIFGYWGQGTQVTVSS”, for which the “polyreactivity (PSR sort gate)” value is listed as “low polyreactivity”.

Consider “QVQLVESGGGLVQAGGSLRLSCAASGSTILSYGMGWYRQAPGKERELVAGISRGGITYYADSVKGRFTISRDNAKNNVYLQMNSLKPEDTAVYYCNVGLYSYYYRSRPRDYEYWGQGTQVTVSS”, for which the “polyreactivity (PSR sort gate)” value is “high polyreactivity”.

As for “QVQLVESGGGLVQAGGSLRLSCAASGSTINSYAMGWYRQAPGKERELVAAITWIGGNTYYADSVKGRFTISRDNAKNTVYLQMNSLKPEDTAVYYCAADEYFEYYYWGQGTQVTVSS”, the “polyreactivity (PSR sort gate)” value is recorded as “low polyreactivity”.

“QVQLVESGGGLVQAGGSLRLSCAASGSTIPPYVMGWYRQAPGKERELVAAISSSTSSTYYADSVKGRFTISRDNAKNTVYLQMNSLKPEDTAVYYCADEYYTYEYIYDYWGQGTQVTVSS”: the “polyreactivity (PSR sort gate)” value is on record as “high polyreactivity”.

As to “QVQLVESGGGLVQAGGSLRLSCAASGSTIPWYAMGWYRQAPGKEREFVAAISWSSGRTYYADSVKGRFTISRDNAKNTVYLQMNSLKPEDTAVYYCAARQWAYYRDVEMGYWGQGTQVTVSS”, the “polyreactivity (PSR sort gate)” value is on record as “high polyreactivity”.

For the sequence “QVQLVESGGGLVQAGGSLRLSCAASGSTIRRNAKGWYRQAPGKERELVAAITRRAVSTYYADSVKGRFTISRDNAKNTVYLQMNSLKPEDTAVYYCAADRASYFTYAYGYWGQGTQVTVSS”, the “polyreactivity (PSR sort gate)” value is recorded as “high polyreactivity”.

For “QVQLVESGGGLVQAGGSLRLSCAASGSTIRSNAMGWYRQAPGKERELVAAISRTGGRTYYADSVKGRFTISRDNAKNTVYLQMNSLKPEDTAVYYCARPDKRLEYSENYYWGQGTQVTVSS”, the “polyreactivity (PSR sort gate)” value is listed as “high polyreactivity”.

Regarding “QVQLVESGGGLVQAGGSLRLSCAASGSTIRYYAMGWYRQAPGKERELLAAITKSGGSTYYADSVKGRFTISRDNAKNTVYLQMNSLKPEDTAVYFCAAVRRWYYPALSEHDYCGQGTQVTVSS”, the “polyreactivity (PSR sort gate)” value is “low polyreactivity”.

As for “QVQLVESGGGLVQAGGSLRLSCAASGSTIRYYAMGWYRQAPGKERELVAANTKSGGSTYYADSVKGRFTISRDNAKNTVYLQMNSPKPEDTAVYSCAAVRRWYYPALSEHDYWGQGTQVTVSS”, the “polyreactivity (PSR sort gate)” value was “low polyreactivity”.
